T1: Epl1 (Saccharomyces cerevisiae, UniProt P43572 1-832)
T1 sequence: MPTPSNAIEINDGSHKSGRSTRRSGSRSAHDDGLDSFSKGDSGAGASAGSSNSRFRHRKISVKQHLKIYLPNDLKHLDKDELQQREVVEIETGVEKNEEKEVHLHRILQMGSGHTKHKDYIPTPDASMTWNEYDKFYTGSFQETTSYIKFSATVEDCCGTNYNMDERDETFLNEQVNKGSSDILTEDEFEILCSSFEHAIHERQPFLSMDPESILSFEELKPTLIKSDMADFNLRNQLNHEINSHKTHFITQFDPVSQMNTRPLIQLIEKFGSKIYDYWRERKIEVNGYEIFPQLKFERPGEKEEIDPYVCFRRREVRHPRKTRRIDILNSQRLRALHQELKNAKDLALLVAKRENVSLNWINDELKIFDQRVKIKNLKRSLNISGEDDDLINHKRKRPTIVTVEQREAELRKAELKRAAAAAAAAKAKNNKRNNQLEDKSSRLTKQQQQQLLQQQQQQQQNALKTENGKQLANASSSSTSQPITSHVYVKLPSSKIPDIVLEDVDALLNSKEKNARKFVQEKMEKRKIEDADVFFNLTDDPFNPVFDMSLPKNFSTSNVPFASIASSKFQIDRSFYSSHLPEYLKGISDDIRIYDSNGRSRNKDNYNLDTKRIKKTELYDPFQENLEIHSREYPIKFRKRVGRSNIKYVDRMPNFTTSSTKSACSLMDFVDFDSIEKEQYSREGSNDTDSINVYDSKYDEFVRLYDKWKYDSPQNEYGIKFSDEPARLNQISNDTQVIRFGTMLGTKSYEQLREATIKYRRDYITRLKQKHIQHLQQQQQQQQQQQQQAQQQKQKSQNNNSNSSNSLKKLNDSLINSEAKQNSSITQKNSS

B1: Esa1 (enzyme)
chain: MSHDGKEEPGIAKKINSVDDIIIKCQCWVQKNDEERLAEILSINTRKAPPKFYVHYVNYNKRLDEWITTDRINLDKEVLYPKLKATDEDNKKQKKKKATNTSETPQDSLQDGVDGFSRENTDVMDLDNLNVQGIKDENISHEDEIKKLRTSGSMTQNPHEVARVRNLNRIIMGKYEIEPWYFSPYPIELTDEDFIYIDDFTLQYFGSKKQYERYRKKCTLRHPPGNEIYRDDYVSFFEIDGRKQRTWCRNLCLLSKLFLDHKTLYYDVDPFLFYCMTRRDELGHHLVGYFSKEKESADGYNVACILTLPQYQRMGYGKLLIEFSYELSKKENKVGSPEKPLSDLGLLSYRAYWSDTLITLLVEHQKEITIDEISSMTSMTTTDILHTAKTLNILRYYKGQHIIFLNEDILDRYNRLKAKKRRTIDPNRLIWKPPVFTASQLRFAW
B2: Gal4-VP16 fusion protein (other)
chain: MKLLSSIEQACDICRLKKLKCSKEKPKCAKCLKNNWECRYSPKTKRSPLTRAHLTEVESRLERLEQLFLLIFPREDLDMILKMDSLQDIKALLTGLFVQDNVNKDAVTDRLASVETDMPLTLRQHRISATSSSEESSNKGQRQLTVSAPPTDVSLGDELHLDGEDVAMAHADALDDFDLDMLGDGDSPGPGFTPHDSAPYGALDMADFEFEQMFTDALGIDEYGG
B3: Yng2 (natural protein)
chain: MDPSLVLEQTIQDVSNLPSEFRYLLEEIGSNDLKLIEEKKKYEQKESQIHKFIRQQGSIPKHPQEDGLDKEIKESLLKCQSLQREKCVLANTALFLIARHLNKLEKNIALLEEDGVLAPVEEDGDMDSAAEASRESSVVSNSSVKKRRAASSSGSVPPTLKKKKTSRTSKLQNEIDVSSREKSVTPVSPSIEKKIARTKEFKNSRNGKGQNGSPENEEEDKTLYCFCQRVSFGEMVACDGPNCKYEWFHYDCVNLKEPPKGTWYCPECKIEMEKNKLKRKRN
B4: Eaf1 (natural protein)
chain: MSSRPSSAVPNSASLSEDQSSDRSKFPKADDLIDERDRKLTELYCVSRLNQLLELTDENKLRKEIDAFLKKNDIRRGIRFDEASLPKLLHTAATPITKKKLKDVNLINVPNQRLSDSKMSRELPENSENVSVKSESHFVPSHDNSIRENMMDSLRPAEKTGGMWNKRPLESTMGGEEERHEKRQKMQSQSLESSNNSEMASLPISPRPPVPNALAHYTYYENIEYPPADPTEVQPAVKFKDPLIKNIMAKEIDTSDHYNENNVDALETVFLLMNDYIPSKIPQALPLAELKYMSQTLPLINLIPRAHKALTTNIINNALNEARITVVGSRIEELRRLGLWSLRQPKRFIDPWKQHNTHQNILLEEAKWMQADFKEGHKYKVAICTAMAQAIKDYWTYGEICCVKRKTLLPGKENKLSDDGRISEKSGRPSDTSRNDSDISIAGKDDIGIIANVDDITEKESAAANDNDENGKNEAGAKSDFDFADGLLSQEGAHDQIISSIDTKLLLKKPSSSSEVVLIQHEVAASSALIETEESKKELAPPFKLSIFVDELNTFEKTLIQDLPLYNGINEERPKKDDSLPFIPISKSVVSLDDNGFYKLLERQLIDEEPSISQLSKRRGMFYGNRRNHYLRPPAVPSLRYLQNRTPTIWLSEDDQELVKNINTYGYNWELISAHMTHRLTYSYLSNIERRTPWQCFERFVQLNERFNFSDLKGPRAHSAQQWLIEAHKFQQRQNRRISPLGVNTESIQRGHRRLRWASMFEAIRKCMKKRENTPRPNPTQPRKPLDCKNMKVPTPAEMSLLKAQRDEALRRDIQLRRTVKNRLQQRQQQSQQAHSSRAQSPIPSNGKSSSNLARNGQASAPRPNQKQYTEQDIIESYSRKLLEQKPDIGPEMALKAAKNYYRTLREQQQQLKQHQIQQQRQQLQEESSHVQQLQQLQPGSQAPPPKSSPSQSSLSNISNINSAPRIKSPTPQEILQRFQKQ

Tests used:
Epl1 = target: T1, Epl1; assay: cryo-EM structure
Tra1 = Tra1 (Saccharomyces cerevisiae, UniProt P38811 1-3744); assay: cross-linking
Chain of Tra1 (P38811 whole entry): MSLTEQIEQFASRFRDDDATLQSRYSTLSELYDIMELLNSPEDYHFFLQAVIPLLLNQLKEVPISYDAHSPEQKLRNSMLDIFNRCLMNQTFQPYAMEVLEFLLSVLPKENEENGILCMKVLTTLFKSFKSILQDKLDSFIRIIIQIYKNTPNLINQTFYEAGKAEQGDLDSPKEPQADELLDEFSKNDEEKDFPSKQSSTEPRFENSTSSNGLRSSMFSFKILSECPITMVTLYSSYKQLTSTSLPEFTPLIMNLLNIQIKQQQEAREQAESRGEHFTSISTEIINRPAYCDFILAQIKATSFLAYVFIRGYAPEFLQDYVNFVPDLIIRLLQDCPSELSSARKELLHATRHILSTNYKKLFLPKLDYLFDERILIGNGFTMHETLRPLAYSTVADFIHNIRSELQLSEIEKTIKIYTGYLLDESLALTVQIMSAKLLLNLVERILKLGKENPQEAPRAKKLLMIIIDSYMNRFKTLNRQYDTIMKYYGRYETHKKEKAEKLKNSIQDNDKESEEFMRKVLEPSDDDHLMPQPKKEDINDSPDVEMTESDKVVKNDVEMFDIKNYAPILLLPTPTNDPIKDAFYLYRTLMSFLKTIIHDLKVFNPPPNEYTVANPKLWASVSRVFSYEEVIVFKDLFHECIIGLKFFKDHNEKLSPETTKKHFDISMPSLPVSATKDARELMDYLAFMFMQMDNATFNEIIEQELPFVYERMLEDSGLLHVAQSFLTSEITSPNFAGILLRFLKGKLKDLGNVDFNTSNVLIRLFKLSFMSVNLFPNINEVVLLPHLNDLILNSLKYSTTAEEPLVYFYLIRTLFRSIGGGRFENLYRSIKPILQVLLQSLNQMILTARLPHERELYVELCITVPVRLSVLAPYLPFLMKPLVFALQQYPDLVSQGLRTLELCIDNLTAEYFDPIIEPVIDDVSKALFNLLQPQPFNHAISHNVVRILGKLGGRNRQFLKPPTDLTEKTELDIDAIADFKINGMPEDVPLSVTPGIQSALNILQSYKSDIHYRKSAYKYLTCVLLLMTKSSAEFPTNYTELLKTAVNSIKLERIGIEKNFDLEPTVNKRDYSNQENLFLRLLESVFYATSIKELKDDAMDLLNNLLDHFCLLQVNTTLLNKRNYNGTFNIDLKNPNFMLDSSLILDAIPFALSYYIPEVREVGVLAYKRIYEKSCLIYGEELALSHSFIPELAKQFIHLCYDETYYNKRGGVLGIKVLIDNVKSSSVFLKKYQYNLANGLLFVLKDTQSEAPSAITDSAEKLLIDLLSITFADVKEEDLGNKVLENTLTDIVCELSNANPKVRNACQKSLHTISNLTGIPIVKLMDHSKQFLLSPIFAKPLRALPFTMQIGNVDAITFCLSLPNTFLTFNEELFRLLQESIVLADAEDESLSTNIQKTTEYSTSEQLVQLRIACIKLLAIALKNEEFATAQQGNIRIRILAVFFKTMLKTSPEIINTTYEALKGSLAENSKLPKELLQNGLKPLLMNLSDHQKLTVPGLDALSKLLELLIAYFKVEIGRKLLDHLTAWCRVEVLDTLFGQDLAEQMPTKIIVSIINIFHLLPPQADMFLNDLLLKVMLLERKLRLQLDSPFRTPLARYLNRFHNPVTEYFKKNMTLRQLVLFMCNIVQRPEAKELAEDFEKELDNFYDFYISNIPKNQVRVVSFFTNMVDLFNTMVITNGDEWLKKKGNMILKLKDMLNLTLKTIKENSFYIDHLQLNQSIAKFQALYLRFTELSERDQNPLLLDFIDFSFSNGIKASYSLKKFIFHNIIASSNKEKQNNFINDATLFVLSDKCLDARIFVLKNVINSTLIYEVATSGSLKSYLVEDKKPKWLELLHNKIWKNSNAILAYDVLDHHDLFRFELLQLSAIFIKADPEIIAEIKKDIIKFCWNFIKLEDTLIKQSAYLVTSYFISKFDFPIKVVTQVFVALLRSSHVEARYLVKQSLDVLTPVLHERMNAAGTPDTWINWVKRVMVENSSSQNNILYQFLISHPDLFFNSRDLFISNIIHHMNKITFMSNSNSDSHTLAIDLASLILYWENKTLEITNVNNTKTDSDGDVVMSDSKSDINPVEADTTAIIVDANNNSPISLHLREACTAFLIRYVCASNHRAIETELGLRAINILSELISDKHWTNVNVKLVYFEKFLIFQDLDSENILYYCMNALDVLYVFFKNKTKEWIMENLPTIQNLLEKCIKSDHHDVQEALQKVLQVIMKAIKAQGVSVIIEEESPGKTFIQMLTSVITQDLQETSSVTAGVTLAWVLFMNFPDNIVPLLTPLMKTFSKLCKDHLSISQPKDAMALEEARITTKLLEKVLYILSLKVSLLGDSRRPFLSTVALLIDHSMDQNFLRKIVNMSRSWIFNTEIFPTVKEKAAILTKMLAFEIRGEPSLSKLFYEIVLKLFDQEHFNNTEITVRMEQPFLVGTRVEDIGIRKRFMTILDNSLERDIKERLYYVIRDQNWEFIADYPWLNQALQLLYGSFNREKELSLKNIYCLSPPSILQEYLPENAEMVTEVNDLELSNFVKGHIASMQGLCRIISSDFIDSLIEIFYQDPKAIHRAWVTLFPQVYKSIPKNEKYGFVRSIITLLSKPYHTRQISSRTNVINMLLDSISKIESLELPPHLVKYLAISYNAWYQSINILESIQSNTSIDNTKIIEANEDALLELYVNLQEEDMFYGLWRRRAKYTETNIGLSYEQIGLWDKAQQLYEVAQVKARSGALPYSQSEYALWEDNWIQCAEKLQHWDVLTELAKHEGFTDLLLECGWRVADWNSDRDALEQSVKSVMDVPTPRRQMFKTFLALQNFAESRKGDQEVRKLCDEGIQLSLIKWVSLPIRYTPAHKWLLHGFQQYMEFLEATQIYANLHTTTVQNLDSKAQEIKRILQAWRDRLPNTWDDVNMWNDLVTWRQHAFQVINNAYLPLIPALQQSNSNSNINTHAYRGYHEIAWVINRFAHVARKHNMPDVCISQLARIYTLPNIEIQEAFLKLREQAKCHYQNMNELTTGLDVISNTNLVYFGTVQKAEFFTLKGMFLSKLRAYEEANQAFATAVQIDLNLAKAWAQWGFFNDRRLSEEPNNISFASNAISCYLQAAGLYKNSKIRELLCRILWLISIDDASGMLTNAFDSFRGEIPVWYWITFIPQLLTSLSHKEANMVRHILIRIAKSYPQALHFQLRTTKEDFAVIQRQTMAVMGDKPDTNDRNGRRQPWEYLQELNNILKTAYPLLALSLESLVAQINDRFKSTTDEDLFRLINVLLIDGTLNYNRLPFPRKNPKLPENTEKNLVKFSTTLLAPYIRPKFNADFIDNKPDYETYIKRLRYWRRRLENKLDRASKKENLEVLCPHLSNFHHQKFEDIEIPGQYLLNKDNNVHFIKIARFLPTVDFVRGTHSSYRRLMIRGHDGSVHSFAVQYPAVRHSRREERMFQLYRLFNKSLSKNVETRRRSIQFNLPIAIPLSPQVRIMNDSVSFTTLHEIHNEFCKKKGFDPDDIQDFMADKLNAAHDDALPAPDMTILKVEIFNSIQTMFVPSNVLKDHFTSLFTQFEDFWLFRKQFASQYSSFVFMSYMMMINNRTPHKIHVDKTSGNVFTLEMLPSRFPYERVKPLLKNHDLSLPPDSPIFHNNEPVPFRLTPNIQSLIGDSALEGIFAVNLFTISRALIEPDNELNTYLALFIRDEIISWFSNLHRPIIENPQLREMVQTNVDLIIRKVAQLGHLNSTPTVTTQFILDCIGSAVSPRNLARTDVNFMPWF

Binder	binding result (Epl1)	binding result (Tra1)
B1	binds	–
B2	–	binds
B3	binds	–
B4	–	binds

Source: publication doi:10.1101/2022.07.12.499507 (bioRxiv, 2022)
